Test system: Bacillus subtilis
Assay: cleaved RNA product abundance (RNA/gDNA barcode ratio) relative to median wild-type variant (ratio to wild type); higher = more accumulation of the downstream cleavage product
How it was run: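 Reporter mRNAs (truncated aprE or tetM) carrying barcoded, mutagenized RNase Y cleavage-site windows were made from oligos with a 9% error rate and integrated into the B. subtilis chromosome. Cultures grew in LB at 37°C from OD600 0.0003 to 0.3. Cleaved RNA was gel-selected, reverse transcribed and barcode-sequenced alongside genomic DNA barcodes, with UMI collapsing. Cleaved product abundance is the RNA:gDNA barcode ratio per variant, scaled to the median wild-type variant.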

[1] = experiment (reporter, strain, medium): exp 2b: truncated aprE reporter, strain BJT200, cleavage site: cggR-gapA (positions -7 to +36 mutated)
[2] = experiment (reporter, strain, medium): exp 4a: truncated aprE reporter, strain BJT201 with 2% xylose (RNase J1 expressed), cleavage site: cggR-gapA (positions -7 to +36 mutated)
[3] = experiment (reporter, strain, medium): exp 6: tetM reporter, strain 168, cleavage site: cggR-gapA (positions -7 to +36 mutated)
[4] = experiment (reporter, strain, medium): exp 8a: truncated aprE reporter, strain BJT201 with 2% xylose (RNase J1 expressed), cleavage site: glnRA (positions -5 to +31 mutated)

Sequence | cleaved RNA product abundance [1] | cleaved RNA product abundance [2] | cleaved RNA product abundance [3] | cleaved RNA product abundance [4]
ACAGACGAAGGAGCCGCAAAGAAATTATTAAGGGATGAATAATCCCTCATTATAAATATCTCTCACTTATTTAAA | 0.197 | 0.514 |  | 
ACAGACGAAGGAGCCGCAAAGAAGTTATTTAGGGATGAATAATCCCTGAATATAAATATCTCTCACTTATTTAAA |  | 0.559 |  | 
ACAGACGAAGGAGCCGCAAAAAAATTATTAAGGGATGAATAATCCCTCATTATAAATATCTCTCACTTATTTAAA |  | 0.267 |  | 
ACAGACGAAGGAGCCGCAAAGAAGTTATTAAGTGATGAATAATCCCTCAATATAACTATCTCTCACTTATTTAAA | 0.146 |  |  | 
ACAGACGAAGGAGCCGCAAACAAGTTATTAAGGAATGAATAATCCCTCAATATAAATATCTCTCACTTATTTAAA | 0.115 | 0.123 | 0.139 | 
ACAGACGAAGGAGCCGCAAAGAAGTTATTAAGGGATGAATAATCCCTCATTTTAAATATCTCTCACTTATTTAAA |  | 0.191 |  | 
ACAGACGAAGGAGCCGCAACGAAGTTATTAAGGGAAGAATAATCCCTCAATATAAATATCTCTCACTTATTTAAA |  | 1.23 |  | 
CGACATGTCCCGCTTCTTTCATTAATCCGTTACCAACTGTTTTGCTATATACATTTCCCTTTTAAGAGGAGGAAT |  |  |  | 0.127
ACAGACGAAGGAGCCGCAAAGAAGTTATTAAGGGATGAATAATCCCTCAAGATAAATATTTCTCACTTATTTAAA |  | 0.27 |  | 
ACAGACGAAGGAGCCGCAAAGAAGTTATTAAGGGATGAATAATCCCTAAATATAAATATCTCTCACTATTTAAAG |  | 0.705 |  | 
ACAGACGAAGGAGCCGCAAAGAAGTTATTAAAGGATGAATAATCCCTCTATATAAAAATCTCTCACTTATTTAAA |  | 0.229 |  | 
ACAGACGAAGGAGCCGCAAAGAAGTTATTAAGGGATTAATAATCCATCAATATAAATATCTCTCACTTATTTAAA | 0.401 | 0.288 |  | 
ACAGACGAAGGAGCCGCAAAGAAGTTACTAAGGGGTGAATAATCCCTCAATATAAATATCTCTCACTTATTTAAA | 0.144 |  |  | 
ACAGACGAAGGAGCCGCAAAGAAGTTATTAAGGCATGAATAATCCCTAAATATAAATATCTCTCACTTATTTAAA | 0.114 | 0.151 |  | 
ACAGACGAAGGAGCCGCAAAGAATCTATTAAGGGATGAATAATCCCTCAATATAAATATCTCTCACTTATTTAAA |  | 0.689 |  | 
ACAGACGAAGGAGCCGCATATAAGTTATTAATGGATGAATAATCCCTCAATATAAATATCTCTCACTTATTTAAA |  | 0.131 |  | 
ACAGACGAAGGAGCCGCAAAGAAGTTATTAATGGATGAATAATCCCTCAATATAAATTTCTCTCACTTATTTAAA | 0.112 | 0.138 |  | 
ACAGACGAAGGAGCCGCAAAGAAGTTATTACGGGATGAATAATCCCTTAATATAAATATCTCTCACTTATTTAAA |  | 1.47 |  | 
CGACATGTCCCGCTTCTTTCATTAATCCCTTAGCAACTGTTTAGCTATATACATTTACCTTTTAAGAGGAGGAAT |  |  |  | 0.236
ACAGACGAAGGAGCCGCAAAGAAGTTATTAACGGATGAATAATACCTCAATATAAATATCTCTCACTTATTTAAA | 0.0908 | 0.136 |  | 

Sequence | cleaved RNA product abundance [1] | cleaved RNA product abundance [2] | cleaved RNA product abundance [3] | cleaved RNA product abundance [4]
ACAGACGAAGGAGCCGCAAAGAAGTTATTAAGTTATGAATAATCCCTCAATATAAATATCTCTCACTTATTTAAA | 0.0915 | 0.13 |  | 
ACAGACGAAGGAGCCGCAAAAAAGTTATTAAGGAATGAATAATCCCTCAATATAAATATCTCTCACTTATTTAAA | 0.112 | 0.156 |  | 
CGACATGTCCCGCTTCTTTCATTAATCCGTTAGAAACTGTTTAGCTATATACATTTACCTTTTAAGAGGAGGAAT |  |  |  | 0.295
CGACATGTCCCGCTTCTTTCATTAATCCGTTAGCAACTATTTTGCTATATATATTTACCTTTTAAGAGGAGGAAT |  |  |  | 1.42
ACAGACGAAGGAGCCGCAAAGAACTTATTAAGGGATGAATAATCCGTCAATATAAATATCTCTCACTTATTTAAA |  | 0.155 |  | 
ACAGACGAAGGAGCCGCAAAGAAGTTATTAATGGATGAATAATCCCTCAATATAAACATCTCTCACTTATTTAAA |  | 0.116 |  | 
ACAGACGAAGGAGCCGCAAAGAAGTTGTTAAGGGATGAATAATCCCTCAATATAAATATCTCTCACTTATTTAAA | 0.357 | 0.453 | 0.537 | 
CGACATGTCCCGCTTCTTTCATTAATCCGTTAGCAACTGTATTGCTATATTCATTTACCTTTTAAGAGGAGGAAT |  |  |  | 0.16
ACAGACGAAGGAGCCGCAAAGAAGTTAATAAGGGATTAATAATCCCTCAATATAAATATCTCTCACTTATTTAAA | 0.218 | 0.313 |  | 
ACAGACGAAGGAGCCGCAAAGAAGTTATTAAGGGATGAATACTCCTTCAATATAAATATCTCTCACTTATTTAAA |  | 0.253 |  | 
ACAGACGAAGGAGCCGCAAAGAAGTTTTTAAGGGATGAATAATCCCTCAATATAAATATCTCTCACTTATTTAAA | 0.274 | 0.365 | 0.209 | 
ACAGACGAAGGAGCCGCAAAGAAGTTCTTAAGAGATGAATAATCCCTCAATATAAATATCTCTCACTTATTTAAA |  | 0.117 |  | 
CGACATGTCCCGCTTCTTTCATTATTCCGTTAGCAACTGTTTTGCTATATATATTTACCTTTTAAGAGGAGGAAT |  |  |  | 1.45
CGACATGTCCCGCTTCTTTCATTAATCCCTTAGCAACTGTTTTGCTATATACAATTACCTTTTAAGAGGAGGAAT |  |  |  | 0.305
ACAGACGAAGGAGCCGCAAAGAAGTTCTTAAGGAATGAATAATCCCTCAATATAAATATCTCTCACTTATTTAAA |  | 0.133 |  | 
CGACATGTCCCGCTTCTTTCATTATTCCTTTAGCAACTGTTTTGCTATATACATTTACCTTTTAAGAGGAGGAAT |  |  |  | 1.04
ACAGACGAAGGAGCCGCAAAGAAGTTATTAACGGATGAATAATCCCTCAACATAAATATCTCTCACTTATTTAAA |  | 0.172 |  | 
CGACATGTCCCGCTTCTTTCATTACACCGTTAGCAACTGTTTTGCTATATACATTTACCTTTTAAGAGGAGGAAT |  |  |  | 1.39
ACAGACGAAGGAGCCGCAAAGAAGTGATTAAGGGATTAATAATCCCTCAATATAAATATCTCTCACTTATTTAAA | 0.459 | 0.325 |  | 
ACAGACGAAGGAGCCGCAAAGAAGTTATTAAGGGATGAATAATACCTGAATATAAATATCTCTCACTTATTTAAA | 0.093 | 0.107 |  | 

Sequence | cleaved RNA product abundance [1] | cleaved RNA product abundance [2] | cleaved RNA product abundance [3] | cleaved RNA product abundance [4]
ACAGACGAAGGAGCCGCAAAGAAGTTATTAAGTGATGAATAATCCCTCAATCTAAATATCTCTCACTTATTTAAA |  | 0.0609 |  | 
CGACATGTCCCGCTTCTTTCATTAATCCGTTAGCAACTGTTTTGCTATATAAATTTACCTTTTAAGAGGAGGAAT |  |  |  | 0.938
CGACATGTCCCGCTTCTTTCATTAATCCTTTAGCAACTGTTTTGCTATATACATTAACCTTTTAAGAGGAGGAAT |  |  |  | 0.846
CGACATGTCCCGCTTCTTTCATTAATCCGTTACCAACTGTTTAGCTATATACATTTACCTTTTAAGAGGAGGAAT |  |  |  | 0.208
ACAGACGAAGGAGCCGCAAAGAAGTTATTAAGGGATGAATAATCCCTCAATATAAACATCTCTCACTTATTTAAA | 0.652 | 0.702 | 0.847 | 
ACAGACGAAGGAGCCGCAAAGAAGTTATTAAGGGATGAATATTCCCTCAATATAAATATCTCTCACTTATTTAAA | 0.675 | 0.699 | 0.84 | 
ACAGACGAAGGAGCCGCAAAGAATTTATTAAGGGATGAATCATCCCTCAATATAAATATCTCTCACTTATTTAAA |  | 0.545 |  | 
ACAGACGAAGGAGCCGCAAAGAAGTTATTAAGGGATGAATAATCCCTCAGGATAAATATCTCTCACTTATTTAAA | 0.131 |  |  | 
ACAGACGAAGGAGCCGCAAAGAAGTTATTAATGGATGAATAATCCCTCAATATTAATATCTCTCACTTATTTAAA |  | 0.0604 |  | 
ACAGACGAAGGAGCCGCAAAGAATTTATTAAGTGATGAATAATCCCTCAATATAAATATCTCTCACTTATTTAAA | 0.127 | 0.118 | 0.117 | 
ACAGACGAAGGAGCCGCAAAGAAGTTATTAATGGAAGAATAATCCCTCAATATAAATATCTCTCACTTATTTAAA | 0.0884 | 0.114 |  | 
CGACATGTCCCGCTTCTTTCATTATTCCGTTAGCAACTGTTTTGCAATATACATTTACCTTTTAAGAGGAGGAAT |  |  |  | 0.626
ACAGACGAAGGAGCCGCAAAGAAGTTCTTAAGGGATGAATAATCCTTCAATATAAATATCTCTCACTTATTTAAA | 0.139 |  |  | 
ACAGACGAAGGAGCCGCAAAGAAGTTATTAAGGGATGAATAATCCCTCAATATAAATATCTCTCATTATTTAAAG | 1.06 | 1.05 |  | 
ACAGACGAAGGAGCCGCAAAGAAGTTATTAAGCGATGAATAATACCTCAATATAAATATCTCTCACTTATTTAAA | 0.0864 | 0.127 |  | 
CGACATGTCCCGCTTCTTTCATTAATCCGTAAGCAACTGTTTTCCTATATACATTTACCTTTTAAGAGGAGGAAT |  |  |  | 0.354
ACAGACGAAGGAGCCGCAAAGAAGTTATTCAGGTATAAATAATCCCTCAATATAAATATCTCTCACTTATTTAAA |  | 0.118 |  | 
ACAGACGAAGGAGCCGCAAAGAAGTCAATAAGGGATGAATAATCCCTCAATATAAATATCTCTCACTTATTTAAA |  | 0.284 |  | 

— the supplement of paper PMC11780869
